In PMC7948480, “Enzymatic and structural properties of human glutamine:fructose-6-phosphate amidotransferase 2 (hGFAT2)” (The Journal of Biological Chemistry, 2020):

Tests used:
[1] = target: the molecule itself; experiment: cross-linking; 3, 5 or 10 ug of purified rhGFAT2-his in PBS with 1 mM EGS, 30 min, room temperature; stopped with 30 mM Tris-HCl pH 8.0; gradient SDS-PAGE, Coomassie staining
[2] = target: the molecule itself; experiment: SEC; Superdex 200 column, 20 mM Tris-HCl pH 7.5, 150 mM NaCl, 1 mM DTT, 0.5% NP-40, 1 ml/min; mass estimated from standard proteins

B1: recombinant human glutamine:fructose-6-phosphate amidotransferase 2 with a C-terminal 6xHisTag (rhGFAT2-his) (enzyme, UniProt O94808 2-682, looked up)
chain: CGIFAYMNYRVPRTRKEIFETLIKGLQRLEYRGYDSAGVAIDGNNHEVKERHIQLVKKRGKVKALDEELYKQDSMDLKVEFETHFGIAHTRWATHGVPSAVNSHPQRSDKGNEFVVIHNGIITNYKDLRKFLESKGYEFESETDTETIAKLIKYVFDNRETEDITFSTLVERVIQQLEGAFALVFKSVHYPGEAVATRRGSPLLIGVRSKYKLSTEQIPILYRTCTLENVKNICKTRMKRLDSSACLHAVGDKAVEFFFASDASAIIEHTNRVIFLEDDDIAAVADGKLSIHRVKRSASDDPSRAIQTLQMELQQIMKGNFSAFMQKEIFEQPESVFNTMRGRVNFETNTVLLGGLKDHLKEIRRCRRLIVIGCGTSYHAAVATRQVLEELTELPVMVELASDFLDRNTPVFRDDVCFFISQSGETADTLLALRYCKDRGALTVGVTNTVGSSISRETDCGVHINAGPEIGVASTKAYTSQFISLVMFGLMMSEDRISLQNRRQEIIRGLRSLPELIKEVLSLEEKIHDLALELYTQRSLLVMGRGYNYATCLEGALKIKEITYMHSEGILAGELKHGPLALIDKQMPVIMVIMKDPCFAKCQNALQQVTARQGRPIILCSKDDTESSKFAYKTIELPHTVDCLQGILSVIPLQLLSFHLAVLRGYDVDFPRNLAKSVTVE
notes: human glutamine:fructose-6-phosphate amidotransferase 2 (hGFAT2), product of the gfpt2 gene; The His tag comes from pET23a after the NotI site; Mostly a tetramer by SEC, with higher oligomers up to octamers; also called rhGFAT-his; source: E. coli Codon plus, soluble fraction, purified (Ni-NTA HisTrap column); not shown: His6, C-terminal, kept
- stoichiometry N [1]: 4
- stoichiometry N [2]: ≤ 8
